Test results as given in patent publication US20240018189A1 (PROTAGONIST THERAPEUTICS, published 2024).
Each block holds one binder with its values, some of them ahead of it. Starred links: 1 amine or outer side, 2 acyl side, 3 side chain; linkers in the order of their positions; H or OH if unused. Positions of bridges follow the written chain, without caps; N, C: chain ends. Non-standard residues stand in square brackets, D forms with d. Groups on a side chain read outwards from the residue. Chains are numbered I, II in the order given. No end group written: not given here. *: point of attachment. PEG12 = NCCOCCOCCOCCOCCOCCOCCOCCOCCOCCOCCOCCOCCC(=O)O; Phe(4-tBu) = CC(C)(C)c1ccc(C[C@H](N)C(=O)O)cc1; Phe(3,4-F2) = N[C@@H](Cc1ccc(F)c(F)c1)C(=O)O; Dip = N[C@H](C(=O)O)C(c1ccccc1)c1ccccc1; γGlu = O=C(O)[C@H](CCC(=O)[*:2])N[*:1]; Palmitoyl = CCCCCCCCCCCCCCCC(=O)*; 2Pal = N[C@@H](Cc1ccccn1)C(=O)O; β3hF = N[C@H](CC(=O)O)Cc1ccccc1; NMeL = CN[C@@H](CC(C)C)C(=O)O; Isovaleryl = CC(C)CC(=O)*; Dap = NC[C@H](N)C(=O)O; Npc = nipecotic acid; Ahx = NCCCCCC(=O)O; βAla = NCCC(=O)O; Sar = CNCC(=O)O

What was measured:
[1] = target: T1, human ferroportin (SLC40A1) fused in frame with GFP (human) (UniProt Q9NP59); experiment: cell-based or functional assay
T1 sequence (looked up): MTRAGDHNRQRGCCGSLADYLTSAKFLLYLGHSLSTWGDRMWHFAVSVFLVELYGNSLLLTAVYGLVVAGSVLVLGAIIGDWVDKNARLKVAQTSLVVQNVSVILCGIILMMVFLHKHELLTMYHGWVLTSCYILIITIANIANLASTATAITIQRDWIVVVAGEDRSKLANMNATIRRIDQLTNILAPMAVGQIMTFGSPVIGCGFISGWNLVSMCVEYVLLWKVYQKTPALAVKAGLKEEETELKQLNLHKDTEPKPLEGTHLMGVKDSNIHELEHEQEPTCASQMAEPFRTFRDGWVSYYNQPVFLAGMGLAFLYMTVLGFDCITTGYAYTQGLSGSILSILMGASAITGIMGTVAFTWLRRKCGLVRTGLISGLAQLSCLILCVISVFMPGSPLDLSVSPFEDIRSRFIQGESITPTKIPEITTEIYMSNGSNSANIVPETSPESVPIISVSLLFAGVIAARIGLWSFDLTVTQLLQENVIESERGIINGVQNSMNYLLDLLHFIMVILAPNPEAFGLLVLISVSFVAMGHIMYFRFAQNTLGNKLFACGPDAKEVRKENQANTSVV

[2] = target: T2, human ferroportin (SLC40A1) fused in frame with GFP (human, UniProt Q9NP59 1-571); experiment: cell-based or functional assay
T2 sequence (looked up): T1 sequence (looked up)

FPN EC50 [1]: 0.75 nM
B1: Compd. ID 5 (peptide)
peptide: DTHXPCIKXKC
modifications: N-term isovaleric acid; 4 Dpa; 8 Lys[Ahx-isoGlu-Palm]; 9 bhPhe; 10 (D)Lys; C-term NH2

FPN EC50 [1]: > 3000 nM
B2: Compd. ID 253 (peptide)
peptide: DTHXPCIKXKKC
modifications: N-term isovaleric acid; 4 Dpa; 8 (D)Lys(PEG12_OMe); 9 bhPhe; 10 Lys(1PEG2_1PEG2_IsoGlu_C18_Diacid); 11 (D)Lys(PEG12_OMe); C-term NH2

FPN EC50 [1]: 6.16 nM
B3: Compd. ID 6 (peptide)
peptide: DTHXPCIKXKC
modifications: N-term isovaleric acid; 4 Dpa; 8 Lys[isoGlu-Palm]; 9 bhPhe; 10 (D)Lys; C-term NH2

FPN EC50 [1]: 24.5 nM
B4: Compd. ID 45 (peptide)
peptide: DTHXPCIKXKKC
modifications: N-term isovaleric acid; 4 Dpa; 8 (D)Lys; 9 bhPhe; 10 Lys(2Peg11′_KKKGS_Palm); 11 (D)Lys; C-term NH2

FPN EC50 [1]: 9.59 nM
Binder: Isovaleryl-DTHFPC[NMeL]K([γGlu-Palmitoyl])FEPRSKGCK-NH2 (disulfide 6-16 (inferred)) [Compd. ID 244]

FPN EC50 [1]: 12.5 nM
Binder: Isovaleryl-DTH[Dip]PC[NMeL][dK][β3hF]K([Ahx-Palmitoyl])[dK]C-NH2 (disulfide 6-12 (inferred); not fully specified) [Compd. ID 201]

FPN EC50 [1]: 1700 nM
B5: Compd. ID 42 (peptide)
peptide: DTHXPCIKXKKC
modifications: N-term isovaleric acid; 4 Dpa; 8 (D)Lys; 9 bhPhe; 10 Lys(1Peg2_1Peg2_IsoGlu_C18_Diacid); 11 (D)Lys; C-term NH2

FPN EC50 [1]: 16.6 nM
Binder: Isovaleryl-DTHFPCLK([γGlu-Palmitoyl])FEPRSKGCK-NH2 (disulfide 6-16 (inferred)) [Compd. ID 216]

IC50: FPN internalisation [1]: 7.16 nM
Binder: Isovaleryl-DTH[Dip]PCI[βAla][β3hF]K([PEG12-Palmitoyl])[dK]C-NH2 (disulfide 6-12 (inferred)) [Seq. No. 333]

FPN EC50 [1]: 15.6 nM
Binder: Isovaleryl-DTHFPCIK([γGlu-Palmitoyl])FEPRSKGC (disulfide 6-16 (inferred)) [Compd. ID 218]

FPN EC50 [1]: 12.6 nM
Binder: Isovaleryl-DTHFPCIK([γGlu-Palmitoyl])FEPR [Compd. ID 219]

FPN EC50 [1]: 10.8 nM
Binder: Isovaleryl-DTH[Dip]PCI[β3hF]K([Ahx-Palmitoyl])[dK]C-NH2 (disulfide 6-11 (inferred)) [Compd. ID 206]

IC50: FPN internalisation [1]: 20.4 nM
B6: Seq. No. 338 (peptide)
peptide: DTHXPCIKFKXC
modifications: N-term isovaleric acid; 4 Dpa; 8 (D)Lys; 10 Lys(PEG12 Palm); 11 bhLys; C-term NH2

IC50: FPN internalisation [1]: 6.93 nM
Binder: Isovaleryl-DTH[Dip]PCI[β3hF]K([PEG12-Palmitoyl])[dK]C-NH2 (disulfide 6-11 (inferred)) [Seq. No. 330]

FPN EC50 [2]: 2.54 nM
Binder: Isovaleryl-DTH[Dip]PCI[Dap]([Dap-Palmitoyl])[β3hF]C-NH2 (disulfide 6-10 (inferred)) [Compd. ID 1]

FPN EC50 [1]: 18.4 nM
B7: Compd. ID 9 (peptide)
peptide: DTHXPCIKXKC
modifications: N-term isovaleric acid; 4 Dpa; 8 Lys[1Peg2-1Peg2-isoGlu-Behenic_Acid]; 9 bhPhe; 10 (D)Lys; C-term NH2

IC50: FPN internalisation [1]: 13.7 nM
B8: Seq. No. 317 (peptide)
peptide 1: Isovaleryl-DTHFPCIK([γGlu-Palmitoyl])FEPR
peptide 2: SKGCK-NH2
modifications: disulfide I:6-II:4

IC50: FPN internalisation [1]: 23 nM
B9: Seq. No. 345 (peptide)
peptide: DTHXPCIKXKKC
modifications: N-term isovaleric acid; 4 Dpa; 8 (D)Lys; 9 Dpa; 10 Lys(PEG12_Palm); 11 (D)Lys; C-term NH2

FPN EC50 [1]: 7.19 nM
Binder: Isovaleryl-DTHFPCIK(Ac)FK([PEG12-Palmitoyl])PK(Ac)SK(Ac)[Sar]CK-NH2 (disulfide 6-16 (inferred)) [Compd. ID 214]

IC50: FPN internalisation [1]: 9.72 nM
Binder: Isovaleryl-DTH[Dip]PCIK([Ahx-Palmitoyl])[2Pal]C-NH2 (disulfide 6-10 (inferred)) [Seq. No. 320]

IC50: FPN internalisation [1]: 22.8 nM
Binder: DTHXPCIKFKXC (N-term isovaleric acid; 4 Dpa; 8 (D)Lys; 10 Lys(PEG12 Palm); 11 Dab; C-term NH2) [Seq. No. 339]

FPN EC50 [1]: 550 nM
B10: Compd. ID 8 (peptide)
peptide: DTHXPCIKXKC
modifications: N-term isovaleric acid; 4 Dpa; 8 Lys[Ahx-Behenic_Acid]; 9 bhPhe; 10 (D)Lys; C-term NH2

IC50: FPN internalisation [1]: 142 nM
Binder: DTHXPCIKXKKC (N-term isovaleric acid; 4 Dpa; 8 (D)Lys; 9 bhPhe; 11 (D)Lys; C-term NH2) [Seq. No. 327]

IC50: FPN internalisation [1]: 10.6 nM
Binder: Isovaleryl-DTH[Dip]PCI[βAla][β3hF][dK]C-NH2 (disulfide 6-11 (inferred)) [Seq. No. 323]

IC50: FPN internalisation [1]: 37.8 nM
Binder: DTHXPCIKXKC (N-term isovaleric acid; 4 Dpa; 8 (D)Lys(Ac); 9 bhPhe; 10 Lys(Ac); C-term NH2) [Seq. No. 325]

FPN EC50 [1]: 37.9 nM
B11: Compd. ID 44 (peptide)
peptide: DTHXPCIKXKKC
modifications: N-term isovaleric acid; 4 Dpa; 8 (D)Lys; 9 bhPhe; 10 Lys(2Peg11′_KKK_Palm); 11 (D)Lys; C-term NH2

IC50: FPN internalisation [1]: 16.5 nM
Binder: Isovaleryl-DTH[Dip][Npc]CI[dK][Phe(4-tBu)][dK]CK([PEG12-Palmitoyl])-NH2 (disulfide 6-11 (inferred)) [Seq. No. 328]

IC50: FPN internalisation [1]: 23.3 nM
Binder: Isovaleryl-DTH[Dip]PCI[β3hF][dK]C-NH2 (disulfide 6-10 (inferred)) [Seq. No. 324]

FPN EC50 [1]: 28 nM
B12: Compd. ID 203 (peptide)
peptide: DTHFPCIKXKKC
modifications: not fully specified; N-term isovaleric acid; 4 MePhe; 8 (D)Lys; 9 bhPhe; 10 Lys(Ahx_Palm); 11 (D)Lys; C-term NH2

IC50: FPN internalisation [1]: 26.9 nM
Binder: DTHXPCIKFKXC (N-term isovaleric acid; 4 Dpa; 8 (D)Lys; 10 Lys(PEG12_Palm); 11 Orn; C-term NH2) [Seq. No. 340]

IC50: FPN internalisation [1]: 32 nM
Binder: Isovaleryl-DTHFPCI[dK]FK([PEG12-Palmitoyl])CK-NH2 (disulfide 6-11 (inferred)) [Seq. No. 334]

FPN EC50 [1]: 283 nM
B13: Compd. ID 43 (peptide)
peptide: DTHXPCIKXKKC
modifications: N-term isovaleric acid; 4 Dpa; 8 (D)Lys; 9 bhPhe; 10 Lys(1Peg2_1Peg2_Ahx_C18_Diacid); 11 (D)Lys; C-term NH2

FPN EC50 [1]: 6.35 nM
Binder: Isovaleryl-DTH[Dip][Npc]CI[dK][β3hF]K([Ahx-Palmitoyl])[dK]C-NH2 (disulfide 6-12 (inferred)) [Compd. ID 4]

IC50: FPN internalisation [1]: 95.7 nM
Binder: DTHXPCIKXKC (N-term isovaleric acid; 4 Dpa; 8 (D)Lys; 9 bhPhe; 10 Lys(Ac); C-term NH2) [Seq. No. 326]

FPN EC50 [1]: 4.23 nM
Binder: DTHFPCIKXKKC (N-term isovaleric acid; 8 (D)Lys; 9 bhPhe; 10 Lys(Palm); C-term NH2) [Compd. ID 205]

IC50: FPN internalisation [1]: 22 nM
Binder: DTHXPCIKFKC (N-term isovaleric acid; 4 Dpa; 8 (D)Lys; 10 Lys(PEG12_Palm); C-term NH2) [Seq. No. 341]

IC50: FPN internalisation [1]: 24 nM
Binder: Isovaleryl-DTH[Dip]PCII[β3hF]K([PEG12-Palmitoyl])[dK]C-NH2 (disulfide 6-12 (inferred)) [Seq. No. 331]

IC50: FPN internalisation [1]: 7.75 nM
B14: Seq. No. 344 (peptide)
peptide: DTHXPCIKFKKX
modifications: N-term isovaleric acid; 4 Dpa; 8 (D)Lys; 10 Lys(PEG12_Palm); 11 (D)Lys; 12 Pen; C-term NH2

IC50: FPN internalisation [1]: 6.16 nM
Binder: Isovaleryl-DTH[Dip][Npc]CI[dK][Phe(3,4-F2)]K([PEG12-Palmitoyl])KC-NH2 (disulfide 6-12 (inferred)) [Seq. No. 346]

IC50: FPN internalisation [1]: 11 nM
Binder: Isovaleryl-DTH[Dip]PCI[dA][β3hF]K([PEG12-Palmitoyl])[dK]C-NH2 (disulfide 6-12 (inferred)) [Seq. No. 332]

IC50: FPN internalisation [1]: 21.7 nM
Binder: DTHXPCIKXKC (N-term isovaleric acid; 4 Dpa; 8 Lys(Ahx_Palm); 9 2Pal; 10 (D)Lys; C-term NH2) [Seq. No. 321]
